Fold increase in co-precipitated DCR-1 against wild type ALG-1, fold decrease in co-precipitated AIN-1 against wild type ALG-1 and fold decrease in co-precipitated AIN-1 against wild type ALG-1 (average of biological replicates) data for two substances are collected here from paper PMC3998888.

The target of this assay is ALG-1(anti) (C. elegans (endogenous in whole animals)). In words: co-IP; ALG-1 immunoprecipitated with a custom ALG-1-specific polyclonal antibody (Anaspec) from whole protein lysate of wild type or alg-1(anti) animals; precipitate probed by Western blot with anti-ALG-1, anti-DCR-1 and anti-AIN-1; signals quantified as ratios to ALG-1 and normalised to wild type. On the technique in general: A western blot detects proteins with antibodies after separation by electrophoresis.

Regarding “DCR-1 (Dicer) (from UniProt P34529 1-1910) (enzyme)”, the fold increase in co-precipitated DCR-1 against wild type ALG-1 came out at 4 fold.

On to AIN-1 (GW182) (natural protein), for which the fold decrease in co-precipitated AIN-1 against wild type ALG-1 was determined as 3 fold and the fold decrease in co-precipitated AIN-1 against wild type ALG-1 (average of biological replicates) turned out to be 2 fold.
